Drawing on publication PMC11096381, this text covers percent of CD5L bound to IgM for one molecule.

This test deals with serum immunoglobulin M (IgM), endogenous mouse (mouse (endogenous in C57BL/6 mice)). As to the kind of experiment: SEC + other: SDS-PAGE with western blot keeping disulfide bonds; peritoneal fluid and serum of healthy WT mice (0 h); 7.5% SDS-PAGE under conditions that prevent disruption of CD5L-IgM disulfide bonds, western blot for CD5L, densitometry of IgM-bound and free bands; WT serum also fractionated on Superose 12 10/300 GL in PBS and fractions blotted for CD5L and IgM. A general note: In western blotting, separated proteins are transferred to a membrane and probed.

B1: CD5 antigen-like (CD5L), endogenous mouse protein (natural protein)
chain: ESPTKVQLVGGAHRCEGRVEVEHNGQWGTVCDDGWDRRDVAVVCRELNCGAVIQTPRGASYQPPASEQRVLIQGVDCNGTEDTLAQCELNYDVFDCSHEEDAGAQCENPDSDLLFIPEDVRLVDGPGHCQGRVEVLHQSQWSTVCKAGWNLQVSKVVCRQLGCGRALLTYGSCNKNTQGKGPIWMGKMSCSGQEANLRSCLLSRLENNCTHGEDTWMECEDPFELKLVGGDTPCSGRLEVLHKGSWGSVCDDNWGEKEDQVVCKQLGCGKSLHPSPKTRKIYGPGAGRIWLDDVNCSGKEQSLEFCRHRLWGYHDCTHKEDVEVICTDFDV
With B1, the percent of CD5L bound to IgM is above 90%.
